The data set relates to Escherichia coli TOP10. Briefly: shrunken log2 fold change of peptide-encoding DNA abundance (4.5 h post-induction vs induction); higher = less antimicrobial activity (less host growth inhibition). The conditions noted are these: time post-induction: 4.5 h; library: site-saturation at positions 5, 18, 19, 20.
For the sequence RRIRCRPPRLPRPRPRPNRYPRP, the “shrunken log2 fold change” value was -0.137.
Under RRIRRRPPRLPRPRPRPCIQPRP stands -0.271; under RRIRERPPRLPRPRPRPQGEPRP, -0.0686; under RRIRIRPPRLPRPRPRPEVPPRP, -0.0152.
In the case of RRIRCRPPRLPRPRPRPHNPPRP it was -0.377.
As to RRIRNRPPRLPRPRPRPLVYPRP, the “shrunken log2 fold change” value was -0.943.
Turning to RRIRDRPPRLPRPRPRPVHIPRP, the “shrunken log2 fold change” value is -0.144.
With RRIRQRPPRLPRPRPRPNPDPRP, the “shrunken log2 fold change” value is -0.0331.
RRIRHRPPRLPRPRPRPNHGPRP: the “shrunken log2 fold change” value came out at 0.0424.
Regarding RRIRHRPPRLPRPRPRPWTSPRP, the “shrunken log2 fold change” value was -0.00277.
Consider RRIRERPPRLPRPRPRPGELPRP, for which the “shrunken log2 fold change” value was -0.26.
On to RRIRGRPPRLPRPRPRPKGNPRP, for which the “shrunken log2 fold change” value stood at 0.598.
As for RRIRYRPPRLPRPRPRPSWWPRP, the “shrunken log2 fold change” value is -0.511.
In the case of RRIRDRPPRLPRPRPRPKPIPRP, the “shrunken log2 fold change” value turned out to be 0.106.
Under RRIRERPPRLPRPRPRPGFHPRP stands -0.277.
Turning to RRIRERPPRLPRPRPRPYVWPRP, the “shrunken log2 fold change” value is -0.401.
For RRIRHRPPRLPRPRPRPMPIPRP, the “shrunken log2 fold change” value came out at 0.113.
As for RRIRMRPPRLPRPRPRPIVTPRP, the “shrunken log2 fold change” value is -0.00781.
In the case of RRIRSRPPRLPRPRPRPIKGPRP it was -0.00753; in that of RRIRLRPPRLPRPRPRPKTKPRP, -0.021.
With RRIRDRPPRLPRPRPRPMYIPRP, the “shrunken log2 fold change” value was -0.148.
For the sequence RRIRCRPPRLPRPRPRPDQYPRP, the “shrunken log2 fold change” value was -0.277.
Consider RRIRFRPPRLPRPRPRPCCCPRP, for which the “shrunken log2 fold change” value was 0.0783.
In the case of RRIRQRPPRLPRPRPRPDVFPRP, the “shrunken log2 fold change” value is -0.211.
Consider RRIRRRPPRLPRPRPRPQTQPRP, for which the “shrunken log2 fold change” value was 0.506.
RRIRWRPPRLPRPRPRPAWVPRP: the “shrunken log2 fold change” value is 0.378.
With RRIRSRPPRLPRPRPRPVTPPRP, the “shrunken log2 fold change” value was 0.0877.
Under RRIRIRPPRLPRPRPRPPRTPRP stands 0.195; under RRIRFRPPRLPRPRPRPNKLPRP, -0.615; under RRIRDRPPRLPRPRPRPFNEPRP, 0.0103.
As for RRIRHRPPRLPRPRPRPFQTPRP, the “shrunken log2 fold change” value is -0.183.
Consider RRIRHRPPRLPRPRPRPDLNPRP, for which the “shrunken log2 fold change” value came out at 0.015.
For RRIRRRPPRLPRPRPRPWLSPRP, the “shrunken log2 fold change” value amounted to 0.0437.
In the case of RRIRARPPRLPRPRPRPGSNPRP, the “shrunken log2 fold change” value was determined as 0.127.
With RRIRYRPPRLPRPRPRPTRNPRP, the “shrunken log2 fold change” value was -0.404.
In the case of RRIRMRPPRLPRPRPRPNSPPRP it was 0.147.
Take RRIRMRPPRLPRPRPRPPRSPRP: the “shrunken log2 fold change” value turned out to be 1.6.
RRIRHRPPRLPRPRPRPEEEPRP: the “shrunken log2 fold change” value is -0.0106.
For RRIRSRPPRLPRPRPRPFSIPRP, the “shrunken log2 fold change” value is -0.379.
With RRIRIRPPRLPRPRPRPIGWPRP, the “shrunken log2 fold change” value turned out to be 0.0224.
Consider RRIRARPPRLPRPRPRPDHIPRP, for which the “shrunken log2 fold change” value is -0.126.
For the sequence RRIRLRPPRLPRPRPRPICYPRP, the “shrunken log2 fold change” value was -0.284.
With RRIRPRPPRLPRPRPRPHTWPRP, the “shrunken log2 fold change” value was -0.0512.
Under RRIRIRPPRLPRPRPRPYVLPRP stands -0.588; under RRIRKRPPRLPRPRPRPRHDPRP, 0.254.
For the sequence RRIRPRPPRLPRPRPRPQPGPRP, the “shrunken log2 fold change” value was 0.204.
RRIRARPPRLPRPRPRPDNKPRP: the “shrunken log2 fold change” value is -0.24.
Take RRIRNRPPRLPRPRPRPMHDPRP: the “shrunken log2 fold change” value was -0.117.
Take RRIRMRPPRLPRPRPRPANNPRP: the “shrunken log2 fold change” value was -0.264.
In the case of RRIRMRPPRLPRPRPRPRDWPRP, the “shrunken log2 fold change” value amounted to 1.31.
For the sequence RRIRDRPPRLPRPRPRPYWAPRP, the “shrunken log2 fold change” value was -0.0312.
Consider RRIRNRPPRLPRPRPRPDLCPRP, for which the “shrunken log2 fold change” value is -0.0418.
For RRIRSRPPRLPRPRPRPHAMPRP, the “shrunken log2 fold change” value is -0.376.
Regarding RRIRSRPPRLPRPRPRPDTDPRP, the “shrunken log2 fold change” value is 0.0794.
With RRIRERPPRLPRPRPRPQAHPRP, the “shrunken log2 fold change” value is -0.0188.
As for RRIRARPPRLPRPRPRPVMVPRP, the “shrunken log2 fold change” value is 0.0116.
Regarding RRIRLRPPRLPRPRPRPWNRPRP, the “shrunken log2 fold change” value was -0.0226.
With RRIRHRPPRLPRPRPRPRNCPRP, the “shrunken log2 fold change” value is -0.112.
Under RRIRWRPPRLPRPRPRPLKAPRP stands 0.749.
For the sequence RRIRHRPPRLPRPRPRPLDPPRP, the “shrunken log2 fold change” value is -0.331.
On to RRIRFRPPRLPRPRPRPLYFPRP, for which the “shrunken log2 fold change” value was -0.72.
As for RRIRRRPPRLPRPRPRPFPLPRP, the “shrunken log2 fold change” value is 0.49.
For RRIRCRPPRLPRPRPRPQFPPRP, the “shrunken log2 fold change” value is -0.17.
In the case of RRIRERPPRLPRPRPRPWTRPRP it was -0.0974; in that of RRIRQRPPRLPRPRPRPGTAPRP, 0.206; in that of RRIRMRPPRLPRPRPRPISKPRP, 0.316.
In the case of RRIRERPPRLPRPRPRPPVLPRP it was 0.127.
As for RRIRMRPPRLPRPRPRPMFAPRP, the “shrunken log2 fold change” value turned out to be 0.304.
RRIRWRPPRLPRPRPRPRLVPRP: the “shrunken log2 fold change” value came out at 0.476.
In the case of RRIRDRPPRLPRPRPRPCPLPRP it was -0.0882; in that of RRIRVRPPRLPRPRPRPCWEPRP, -0.0578.
With RRIRRRPPRLPRPRPRPPPWPRP, the “shrunken log2 fold change” value is 0.868.
On to RRIRCRPPRLPRPRPRPAIDPRP, for which the “shrunken log2 fold change” value is -0.0121.
Under RRIRERPPRLPRPRPRPSLMPRP stands -0.459.
Regarding RRIRHRPPRLPRPRPRPQFPPRP, the “shrunken log2 fold change” value is -0.157.
In the case of RRIRFRPPRLPRPRPRPEWNPRP, the “shrunken log2 fold change” value is -0.21.
Consider RRIRIRPPRLPRPRPRPQFAPRP, for which the “shrunken log2 fold change” value was -0.0319.
With RRIRRRPPRLPRPRPRPNTLPRP, the “shrunken log2 fold change” value is -0.283.
For RRIRRRPPRLPRPRPRPTWSPRP, the “shrunken log2 fold change” value turned out to be 0.519.
In the case of RRIRARPPRLPRPRPRPNIHPRP, the “shrunken log2 fold change” value is -0.333.
Regarding RRIRWRPPRLPRPRPRPMALPRP, the “shrunken log2 fold change” value was -0.0125.
With RRIRERPPRLPRPRPRPWIKPRP, the “shrunken log2 fold change” value is -0.924.
As for RRIRARPPRLPRPRPRPHNPPRP, the “shrunken log2 fold change” value is 0.0946.
With RRIRPRPPRLPRPRPRPMKHPRP, the “shrunken log2 fold change” value stood at 0.0348.
Regarding RRIRRRPPRLPRPRPRPSWIPRP, the “shrunken log2 fold change” value is -0.284.
Under RRIRKRPPRLPRPRPRPLIEPRP stands 0.105; under RRIRHRPPRLPRPRPRPFWWPRP, 0.0369.
RRIRNRPPRLPRPRPRPYMNPRP: the “shrunken log2 fold change” value is -0.207.
RRIRARPPRLPRPRPRPDILPRP: the “shrunken log2 fold change” value came to 0.0584.
Under RRIRNRPPRLPRPRPRPLYKPRP stands -0.561; under RRIRDRPPRLPRPRPRPTPSPRP, 0.368.
In the case of RRIRMRPPRLPRPRPRPDWKPRP it was 0.0125.
In the case of RRIRRRPPRLPRPRPRPMGNPRP, the “shrunken log2 fold change” value is 0.0273.
Under RRIRMRPPRLPRPRPRPWQVPRP stands -0.0506; under RRIRMRPPRLPRPRPRPPSVPRP, 0.777.
As to RRIRDRPPRLPRPRPRPAKSPRP, the “shrunken log2 fold change” value was -0.0126.
Take RRIRWRPPRLPRPRPRPPQKPRP: the “shrunken log2 fold change” value was found to be 0.413.
In the case of RRIRIRPPRLPRPRPRPFMVPRP, the “shrunken log2 fold change” value was -0.975.
Under RRIRVRPPRLPRPRPRPDNTPRP stands -0.426.
Regarding RRIRCRPPRLPRPRPRPRSKPRP, the “shrunken log2 fold change” value was determined as 0.0908.
With RRIRVRPPRLPRPRPRPWLIPRP, the “shrunken log2 fold change” value was -0.277.
Regarding RRIRKRPPRLPRPRPRPPNWPRP, the “shrunken log2 fold change” value was found to be 0.593.
Take RRIRYRPPRLPRPRPRPMKCPRP: the “shrunken log2 fold change” value is -0.905.
Under RRIRHRPPRLPRPRPRPNTTPRP stands -0.019; under RRIRIRPPRLPRPRPRPTDRPRP, -0.192.
For RRIRPRPPRLPRPRPRPTNEPRP, the “shrunken log2 fold change” value was 0.0205.
In the case of RRIRARPPRLPRPRPRPDKGPRP it was 0.168; in that of RRIRYRPPRLPRPRPRPCQQPRP, -0.163.
RRIRFRPPRLPRPRPRPFKGPRP: the “shrunken log2 fold change” value was -0.23.
Consider RRIRQRPPRLPRPRPRPGRYPRP, for which the “shrunken log2 fold change” value was -0.205.
Regarding RRIRNRPPRLPRPRPRPTRKPRP, the “shrunken log2 fold change” value is 0.623.
As to RRIRMRPPRLPRPRPRPRYSPRP, the “shrunken log2 fold change” value is -0.342.
In the case of RRIRYRPPRLPRPRPRPIIEPRP, the “shrunken log2 fold change” value is -0.643.
On to RRIRWRPPRLPRPRPRPILVPRP, for which the “shrunken log2 fold change” value turned out to be 0.0752.
In the case of RRIRQRPPRLPRPRPRPMNIPRP it was -0.809; in that of RRIRRRPPRLPRPRPRPAEVPRP, 0.219; in that of RRIRRRPPRLPRPRPRPWYCPRP, -0.21.
Regarding RRIRARPPRLPRPRPRPPKCPRP, the “shrunken log2 fold change” value was 0.274.
Under RRIRMRPPRLPRPRPRPAFWPRP stands 0.963; under RRIRMRPPRLPRPRPRPCDEPRP, 0.877; under RRIRRRPPRLPRPRPRPTLCPRP, 0.581.
RRIRLRPPRLPRPRPRPPSMPRP: the “shrunken log2 fold change” value is -0.127.
For the sequence RRIRWRPPRLPRPRPRPEIQPRP, the “shrunken log2 fold change” value was 0.685.
Under RRIRFRPPRLPRPRPRPLVKPRP stands -0.143; under RRIRERPPRLPRPRPRPRNEPRP, -0.473.

For the origin of these results see the supplement of paper PMC9112550, “Optimization of the antimicrobial peptide Bac7 by deep mutational scanning” (BMC Biology, 2022).
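Further: peptides expressed intracellularly from a pBAD plasmid library in pooled LB shake-flask culture, induced with 0.3% L-arabinose, DNA abundance read by NGS, three biological replicates, DESeq2 with apeglm shrinkage.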
